# Assay results published in the RNAGym collection of RNA variant scans (doi:10.1021/acssynbio.7b00057).
# B1: Pistol ribozyme (parent)
# chain: GGGUCGUUGUUCCAUAAUCGCGUGGAUAUGGCACGCAAGUUUCUACCGGGCACCGUAAAUGUCCGACUGGAGCCGUUCGGGCGGCUAUAAACAGACCUCAGGCCCGAAGCGUGGCGGCACCUGCCGCCGGUGGUAAAAAAGAUCGGAAGAGCACACGUCU
# Variants of: B1
# Test: aptazyme ON/OFF ratio, guanine; higher = stronger switching; co-transcriptional cleavage with and without guanine
row,Variant,aptazyme ON/OFF ratio
1,GGGUCGGAGGACCAUAAUCGCGUGGAUAUGGCACGCAAGUUUCUACCGGGCACCGUAAAUGUCCGACUGGAGCCGUUCGGGCGGCUAUAAACAGACCUCAGGCCCGAAGCGUGGCGGCACCUGCCGCCGGUGGUAAAAAAGAUCGGAAGAGCACACGUCU [U7G U8A U10G U11A],2.15
2,GGGUCGGAGGCCCAUAAUCGCGUGGAUAUGGCACGCAAGUUUCUACCGGGCACCGUAAAUGUCCGACUGGAGCCGUUCGGGCGGCUAUAAACAGACCUCAGGCCCGAAGCGUGGCGGCACCUGCCGCCGGUGGUAAAAAAGAUCGGAAGAGCACACGUCU [U7G U8A U10G U11C],2.11
3,GGGUCGGAGGUUGAUAAUCGCGUGGAUAUGGCACGCAAGUUUCUACCGGGCACCGUAAAUGUCCGACUGGAGCCGUUCGGGCGGCUAUAAACAGACCUCAGGCCCGAAGCGUGGCGGCACCUGCCGCCGGUGGUAAAAAAGAUCGGAAGAGCACACGUCU [U7G U8A U10G C12U C13G],1.54
4,GGGUCGGAGGUUUAUAAUCGCGUGGAUAUGGCACGCAAGUUUCUACCGGGCACCGUAAAUGUCCGACUGGAGCCGUUCGGGCGGCUAUAAACAGACCUCAGGCCCGAAGCGUGGCGGCACCUGCCGCCGGUGGUAAAAAAGAUCGGAAGAGCACACGUCU [U7G U8A U10G C12U C13U],1.12
5,GGGUCGGAGGUUAAUAAUCGCGUGGAUAUGGCACGCAAGUUUCUACCGGGCACCGUAAAUGUCCGACUGGAGCCGUUCGGGCGGCUAUAAACAGACCUCAGGCCCGAAGCGUGGCGGCACCUGCCGCCGGUGGUAAAAAAGAUCGGAAGAGCACACGUCU [U7G U8A U10G C12U C13A],1.6
6,GGGUCGGAGGAGAAUAAUCGCGUGGAUAUGGCACGCAAGUUUCUACCGGGCACCGUAAAUGUCCGACUGGAGCCGUUCGGGCGGCUAUAAACAGACCUCAGGCCCGAAGCGUGGCGGCACCUGCCGCCGGUGGUAAAAAAGAUCGGAAGAGCACACGUCU [U7G U8A U10G U11A C12G C13A],1.11
7,GGGUCGGAGGAGGAUAAUCGCGUGGAUAUGGCACGCAAGUUUCUACCGGGCACCGUAAAUGUCCGACUGGAGCCGUUCGGGCGGCUAUAAACAGACCUCAGGCCCGAAGCGUGGCGGCACCUGCCGCCGGUGGUAAAAAAGAUCGGAAGAGCACACGUCU [U7G U8A U10G U11A C12G C13G],1.25
8,GGGUCGGAGGAGUAUAAUCGCGUGGAUAUGGCACGCAAGUUUCUACCGGGCACCGUAAAUGUCCGACUGGAGCCGUUCGGGCGGCUAUAAACAGACCUCAGGCCCGAAGCGUGGCGGCACCUGCCGCCGGUGGUAAAAAAGAUCGGAAGAGCACACGUCU [U7G U8A U10G U11A C12G C13U],1.23
9,GGGUCGGAGGUAAAUAAUCGCGUGGAUAUGGCACGCAAGUUUCUACCGGGCACCGUAAAUGUCCGACUGGAGCCGUUCGGGCGGCUAUAAACAGACCUCAGGCCCGAAGCGUGGCGGCACCUGCCGCCGGUGGUAAAAAAGAUCGGAAGAGCACACGUCU [U7G U8A U10G C12A C13A],1.58
10,GGGUCGGAGGUAUAUAAUCGCGUGGAUAUGGCACGCAAGUUUCUACCGGGCACCGUAAAUGUCCGACUGGAGCCGUUCGGGCGGCUAUAAACAGACCUCAGGCCCGAAGCGUGGCGGCACCUGCCGCCGGUGGUAAAAAAGAUCGGAAGAGCACACGUCU [U7G U8A U10G C12A C13U],1.15
11,GGGUCGGAGGUAGAUAAUCGCGUGGAUAUGGCACGCAAGUUUCUACCGGGCACCGUAAAUGUCCGACUGGAGCCGUUCGGGCGGCUAUAAACAGACCUCAGGCCCGAAGCGUGGCGGCACCUGCCGCCGGUGGUAAAAAAGAUCGGAAGAGCACACGUCU [U7G U8A U10G C12A C13G],1.11
12,GGGUCGGAGGUGUAUAAUCGCGUGGAUAUGGCACGCAAGUUUCUACCGGGCACCGUAAAUGUCCGACUGGAGCCGUUCGGGCGGCUAUAAACAGACCUCAGGCCCGAAGCGUGGCGGCACCUGCCGCCGGUGGUAAAAAAGAUCGGAAGAGCACACGUCU [U7G U8A U10G C12G C13U],1.27
13,GGGUCGGAGGUGAAUAAUCGCGUGGAUAUGGCACGCAAGUUUCUACCGGGCACCGUAAAUGUCCGACUGGAGCCGUUCGGGCGGCUAUAAACAGACCUCAGGCCCGAAGCGUGGCGGCACCUGCCGCCGGUGGUAAAAAAGAUCGGAAGAGCACACGUCU [U7G U8A U10G C12G C13A],1.25
14,GGGUCGGAGGUGGAUAAUCGCGUGGAUAUGGCACGCAAGUUUCUACCGGGCACCGUAAAUGUCCGACUGGAGCCGUUCGGGCGGCUAUAAACAGACCUCAGGCCCGAAGCGUGGCGGCACCUGCCGCCGGUGGUAAAAAAGAUCGGAAGAGCACACGUCU [U7G U8A U10G C12G C13G],1.18
15,GGGUCGGAGGCGCAUAAUCGCGUGGAUAUGGCACGCAAGUUUCUACCGGGCACCGUAAAUGUCCGACUGGAGCCGUUCGGGCGGCUAUAAACAGACCUCAGGCCCGAAGCGUGGCGGCACCUGCCGCCGGUGGUAAAAAAGAUCGGAAGAGCACACGUCU [U7G U8A U10G U11C C12G],1.02
16,GGGUCGGAGGCACAUAAUCGCGUGGAUAUGGCACGCAAGUUUCUACCGGGCACCGUAAAUGUCCGACUGGAGCCGUUCGGGCGGCUAUAAACAGACCUCAGGCCCGAAGCGUGGCGGCACCUGCCGCCGGUGGUAAAAAAGAUCGGAAGAGCACACGUCU [U7G U8A U10G U11C C12A],1.48
17,GGGUCGGAGGCAGAUAAUCGCGUGGAUAUGGCACGCAAGUUUCUACCGGGCACCGUAAAUGUCCGACUGGAGCCGUUCGGGCGGCUAUAAACAGACCUCAGGCCCGAAGCGUGGCGGCACCUGCCGCCGGUGGUAAAAAAGAUCGGAAGAGCACACGUCU [U7G U8A U10G U11C C12A C13G],1.17
18,GGGUCGGAGGCAAAUAAUCGCGUGGAUAUGGCACGCAAGUUUCUACCGGGCACCGUAAAUGUCCGACUGGAGCCGUUCGGGCGGCUAUAAACAGACCUCAGGCCCGAAGCGUGGCGGCACCUGCCGCCGGUGGUAAAAAAGAUCGGAAGAGCACACGUCU [U7G U8A U10G U11C C12A C13A],1.43

row,Variant,aptazyme ON/OFF ratio
1,GGGUCGGAGGCAUAUAAUCGCGUGGAUAUGGCACGCAAGUUUCUACCGGGCACCGUAAAUGUCCGACUGGAGCCGUUCGGGCGGCUAUAAACAGACCUCAGGCCCGAAGCGUGGCGGCACCUGCCGCCGGUGGUAAAAAAGAUCGGAAGAGCACACGUCU [U7G U8A U10G U11C C12A C13U],1.2
2,GGGUCGGAGGAUCAUAAUCGCGUGGAUAUGGCACGCAAGUUUCUACCGGGCACCGUAAAUGUCCGACUGGAGCCGUUCGGGCGGCUAUAAACAGACCUCAGGCCCGAAGCGUGGCGGCACCUGCCGCCGGUGGUAAAAAAGAUCGGAAGAGCACACGUCU [U7G U8A U10G U11A C12U],1.23
3,GGGUCGGAGGAGCAUAAUCGCGUGGAUAUGGCACGCAAGUUUCUACCGGGCACCGUAAAUGUCCGACUGGAGCCGUUCGGGCGGCUAUAAACAGACCUCAGGCCCGAAGCGUGGCGGCACCUGCCGCCGGUGGUAAAAAAGAUCGGAAGAGCACACGUCU [U7G U8A U10G U11A C12G],1.43
4,GGGUCGGAGGAACAUAAUCGCGUGGAUAUGGCACGCAAGUUUCUACCGGGCACCGUAAAUGUCCGACUGGAGCCGUUCGGGCGGCUAUAAACAGACCUCAGGCCCGAAGCGUGGCGGCACCUGCCGCCGGUGGUAAAAAAGAUCGGAAGAGCACACGUCU [U7G U8A U10G U11A C12A],1.16
5,GGGUCGGAGGUCUAUAAUCGCGUGGAUAUGGCACGCAAGUUUCUACCGGGCACCGUAAAUGUCCGACUGGAGCCGUUCGGGCGGCUAUAAACAGACCUCAGGCCCGAAGCGUGGCGGCACCUGCCGCCGGUGGUAAAAAAGAUCGGAAGAGCACACGUCU [U7G U8A U10G C13U],1.29
6,GGGUCGGAGGUCGAUAAUCGCGUGGAUAUGGCACGCAAGUUUCUACCGGGCACCGUAAAUGUCCGACUGGAGCCGUUCGGGCGGCUAUAAACAGACCUCAGGCCCGAAGCGUGGCGGCACCUGCCGCCGGUGGUAAAAAAGAUCGGAAGAGCACACGUCU [U7G U8A U10G C13G],1.32
7,GGGUCGGAGGUCAAUAAUCGCGUGGAUAUGGCACGCAAGUUUCUACCGGGCACCGUAAAUGUCCGACUGGAGCCGUUCGGGCGGCUAUAAACAGACCUCAGGCCCGAAGCGUGGCGGCACCUGCCGCCGGUGGUAAAAAAGAUCGGAAGAGCACACGUCU [U7G U8A U10G C13A],1.3
8,GGGUCGGAGGAAGAUAAUCGCGUGGAUAUGGCACGCAAGUUUCUACCGGGCACCGUAAAUGUCCGACUGGAGCCGUUCGGGCGGCUAUAAACAGACCUCAGGCCCGAAGCGUGGCGGCACCUGCCGCCGGUGGUAAAAAAGAUCGGAAGAGCACACGUCU [U7G U8A U10G U11A C12A C13G],1.15
9,GGGUCGGAGGAAUAUAAUCGCGUGGAUAUGGCACGCAAGUUUCUACCGGGCACCGUAAAUGUCCGACUGGAGCCGUUCGGGCGGCUAUAAACAGACCUCAGGCCCGAAGCGUGGCGGCACCUGCCGCCGGUGGUAAAAAAGAUCGGAAGAGCACACGUCU [U7G U8A U10G U11A C12A C13U],1.12
10,GGGUCGGAGGAAAAUAAUCGCGUGGAUAUGGCACGCAAGUUUCUACCGGGCACCGUAAAUGUCCGACUGGAGCCGUUCGGGCGGCUAUAAACAGACCUCAGGCCCGAAGCGUGGCGGCACCUGCCGCCGGUGGUAAAAAAGAUCGGAAGAGCACACGUCU [U7G U8A U10G U11A C12A C13A],1.47
11,GGGUCGGAGGUGCAUAAUCGCGUGGAUAUGGCACGCAAGUUUCUACCGGGCACCGUAAAUGUCCGACUGGAGCCGUUCGGGCGGCUAUAAACAGACCUCAGGCCCGAAGCGUGGCGGCACCUGCCGCCGGUGGUAAAAAAGAUCGGAAGAGCACACGUCU [U7G U8A U10G C12G],1.13
12,GGGUCGGAGGUUCAUAAUCGCGUGGAUAUGGCACGCAAGUUUCUACCGGGCACCGUAAAUGUCCGACUGGAGCCGUUCGGGCGGCUAUAAACAGACCUCAGGCCCGAAGCGUGGCGGCACCUGCCGCCGGUGGUAAAAAAGAUCGGAAGAGCACACGUCU [U7G U8A U10G C12U],1.17
13,GGGUCGGAGGACGAUAAUCGCGUGGAUAUGGCACGCAAGUUUCUACCGGGCACCGUAAAUGUCCGACUGGAGCCGUUCGGGCGGCUAUAAACAGACCUCAGGCCCGAAGCGUGGCGGCACCUGCCGCCGGUGGUAAAAAAGAUCGGAAGAGCACACGUCU [U7G U8A U10G U11A C13G],1.23
14,GGGUCGGAGGACAAUAAUCGCGUGGAUAUGGCACGCAAGUUUCUACCGGGCACCGUAAAUGUCCGACUGGAGCCGUUCGGGCGGCUAUAAACAGACCUCAGGCCCGAAGCGUGGCGGCACCUGCCGCCGGUGGUAAAAAAGAUCGGAAGAGCACACGUCU [U7G U8A U10G U11A C13A],1.18
15,GGGUCGGAGGACUAUAAUCGCGUGGAUAUGGCACGCAAGUUUCUACCGGGCACCGUAAAUGUCCGACUGGAGCCGUUCGGGCGGCUAUAAACAGACCUCAGGCCCGAAGCGUGGCGGCACCUGCCGCCGGUGGUAAAAAAGAUCGGAAGAGCACACGUCU [U7G U8A U10G U11A C13U],1.4
16,GGGUCGGAGGAUGAUAAUCGCGUGGAUAUGGCACGCAAGUUUCUACCGGGCACCGUAAAUGUCCGACUGGAGCCGUUCGGGCGGCUAUAAACAGACCUCAGGCCCGAAGCGUGGCGGCACCUGCCGCCGGUGGUAAAAAAGAUCGGAAGAGCACACGUCU [U7G U8A U10G U11A C12U C13G],1.37
17,GGGUCGGAGGAUAAUAAUCGCGUGGAUAUGGCACGCAAGUUUCUACCGGGCACCGUAAAUGUCCGACUGGAGCCGUUCGGGCGGCUAUAAACAGACCUCAGGCCCGAAGCGUGGCGGCACCUGCCGCCGGUGGUAAAAAAGAUCGGAAGAGCACACGUCU [U7G U8A U10G U11A C12U C13A],1.37
18,GGGUCGGAGGAUUAUAAUCGCGUGGAUAUGGCACGCAAGUUUCUACCGGGCACCGUAAAUGUCCGACUGGAGCCGUUCGGGCGGCUAUAAACAGACCUCAGGCCCGAAGCGUGGCGGCACCUGCCGCCGGUGGUAAAAAAGAUCGGAAGAGCACACGUCU [U7G U8A U10G U11A C12U C13U],1.1
